Here are results for one molecule from WO2020165374A1 (dated 2020).

Test [1] has as its target T1, human recombinant IL-15 (SinoBiological ref#10360-H07E) (human, UniProt P40933 49-162).
T1 construct: also called Human IL-15; IL-15 cytokine
Nature of the test: ELISA, human IL-15 immobilized, anti-human IgG peroxidase detection.

The target in test [2] is T2, recombinant human PD-1 (Sino Biologicals, reference 10377-H08H) (human, UniProt Q15116 25-167).
T2 construct: Bought protein; also called recombinant hPDl; Human recombinant PD-1
T2 sequence (Q15116 25-167 limits assumed): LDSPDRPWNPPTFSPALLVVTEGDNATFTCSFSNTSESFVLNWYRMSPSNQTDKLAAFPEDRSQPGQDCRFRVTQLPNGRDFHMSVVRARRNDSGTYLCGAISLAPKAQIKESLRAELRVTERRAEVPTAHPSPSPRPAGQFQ
Nature of the test: ELISA, recombinant hPD1 immobilized, anti-human IgG peroxidase detection. In general terms: ELISA stands for enzyme-linked immunosorbent assay.

T1 sequence (P40933 49-162 limits assumed, stated change not applied): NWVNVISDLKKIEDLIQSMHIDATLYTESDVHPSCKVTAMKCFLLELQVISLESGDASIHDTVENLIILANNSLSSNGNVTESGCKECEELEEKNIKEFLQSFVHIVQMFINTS

B1: anti-PD-1 antibody (antibody, human IgG4 S228P, kappa, V domains shown)
VH: QIQLVQSGSELKKPGASVKVSCKASGYTFTHYAMNWVRQAPGQGLEWMGWINTNTGEPTYAQGFTGRFVFSLDTSVSTAYLQISSLKAEDTAVYYCAREREPGMDNWGQGTLVTVSS
VL: DVVMTQSPLSLPVTLGQPASISCRSSQSLVHANTNTYLEWYQQRPGQSPRLLIYKVSNRFSGVPDRFSGSGSGTDFTLKISRVEAEDVGVYYCFQGTHVPNTFGQGTKLEIKR
notes: also called Anti-PDl; anti-PD-1 alone
As for B1, the binding result is given as “no binding” in test [1] and “binds” in test [2].
